Paper doi:10.1101/2021.02.23.432414
Read-outs that look alike come from different tables or passages of the source.

How the values were obtained:
[1] = target: fluorescently labelled double-cysteine variant of outer membrane protein X (OmpX_(1,149)), unfolded (UniProt P0A917); assay: single-molecule FRET
[2] = target: fluorescently labelled double-cysteine variant of outer membrane protein X (OmpX_(1,149)), unfolded (UniProt P0A917); assay: single-molecule FRET; remark: listed apart in the source

Chain of UniProt P0A917 (P0A917 24-171, change not shown): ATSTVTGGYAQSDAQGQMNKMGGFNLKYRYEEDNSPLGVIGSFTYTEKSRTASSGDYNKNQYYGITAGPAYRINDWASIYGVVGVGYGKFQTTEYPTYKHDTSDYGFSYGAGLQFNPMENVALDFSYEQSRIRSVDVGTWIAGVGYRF

Row | c1/2 [2] [nM] | dH [2] [kcal/mol] | percent of uOmpX bound at 2.5 uM Skp3 [2] [%] | Molecule | c1/2 [1] [nM] | dH [1] [kcal/mol] | percent of uOmpX bound at ~6 uM SurA [1] [%]
1 | – | – | – | survival factor A (SurA) (from UniProt P0ABZ6 21-428) (natural protein) | 407 | -31.5 | 87
2 | 359 | -71.2 | 80 | seventeen-kilodalton protein (Skp), trimer (natural protein) ADKIAIVNMGSLFQQVAQKTGVSNTLENEFKGRASELQRMETDLQAKMKKLQSMKAGSDRTKLEKDVMAQRQTFAQKAQAFEQDRARRSNEERGKLVTRIQTAVKSVANSQDIDLVVDANAVAYNSSDVKDITADVLKQVK | – | – | –
